Results taken from US20240409663A1 (CONCEPT TO MEDICINE BIOTECH, published 2024).
Where two headings read alike, the source gives them in different places.

Legend:
human GPC3 on cells [1] = target: T1, human GPC3 on cells (human, UniProt P51654 25-554); assay: FACS, Huh-7 cells
human GPC3 on cells [2] = target: T1, human GPC3 on cells; assay: FACS, GPC3-CHOK1 cells
human GPC3 on cells [3] = target: T1, human GPC3 on cells; assay: FACS, GPC3-CHOK1 cells; remark: listed apart in the source
human GPC3 on cells [4] = target: T1, human GPC3 on cells; assay: cell-based or functional assay
human GPC3 on cells [5] = target: T1, human GPC3 on cells; assay: FACS, HEPG2 cells
human GPC3 on cells [6] = target: T1, human GPC3 on cells; assay: FACS, HEPG2 cells; remark: listed apart in the source
human GPC3 on cells [7] = target: T1, human GPC3 on cells; assay: FACS, HEPG2 cells
From the text: (§1) FACS was used to evaluate the binding activity of Hu 52H5D3B8-7 and Hu 52H5D3B8-8 with comparison to benchmark antibodies GC33 and Y035 on human GPC3 expressed on CHOK1 cells, Huh-7 cell and HEPG2 cells. In order to evaluate the properties of CDRs and frameworks of Hu 52H5D3B8-7 Ab, two chimeric antibodies were generated. The antibody termed “Hu 52H5D3B8-7/8 CDRs with Y035 FRs” contains the Hu 52H5D3B8-7 CDRs and the Y035 FRs. The antibody termed “Y035 CDRs with Hu 52H5D3B8-7 FRs” represents the chimeric antibody with the Y035 CDRs engrafted to Hu 52H5D3B8-7 FRs.

human GPC3 on cells [8] = target: T1, human GPC3 on cells; assay: cell-based or functional assay; remark: listed apart in the source
human GPC3 on cells [9] = target: T1, human GPC3 on cells; assay: FACS, Huh-7 cells
From the text: as §1

human GPC3 on cells [10] = target: T1, human GPC3 on cells; assay: FACS, GPC3-CHOK1 cells
From the text: as §1

[11] = target: T2, human GPC3-his tag protein (human, UniProt P51654 25-559, limits assumed); assay: SPR Biacore 8K, mAb captured, affinity ranking
T2 construct: recombinant soluble antigen used as analyte in all Biacore runs; also called recombinant GPC3 protein; rhGPC3-His; not shown: His tag
Protocol: To evaluate antigen binding activity, the chimeric antibody's affinity was measured by Biacore 8K. Two concentrations with most close affinity to the chimeric antibody's affinity were chosen for the 12 humanized antibodies' affinity detection. Human GPC3-his tag protein was injected over captured antibody for 3 mins at a flow rate of 30 μl/min. The antigen was allowed to dissociate for 720 s.

human GPC3 on cells [12] = target: T1, human GPC3 on cells; assay: FACS, Huh-7 cells; remark: listed apart in the source
Protocol: (§2) To evaluate the antigen binding property, the humanized antibodies were analyzed for their binding to human GPC3 over-expressed CHOK1 cells and Huh-7 cells by FACS. Briefly, GPC3-CHOK1 cells and Huh-7 cells were firstly incubated with Fc blocking reagent at 4° C. for 15 mins. Cells were washed by FACS buffer and divided to each well with 4-fold serially diluted humanized antibodies starting at 10 μg/mL at 4° C. for 60 mins. Cells were washed by FACS buffer and fixed with 2% PFA at RT for 15 mins. […] As different plates might affect the EC50 of 52H5D3B8-VH+VL, the 12 humanized antibodies were separated into two plates.

human GPC3 on cells [13] = target: T1, human GPC3 on cells; assay: FACS, GPC3-CHOK1 cells; remark: listed apart in the source
Protocol: as §2

Row | Binder | EC50 (human GPC3 on cells [1]) [pM] | EC50 (human GPC3 on cells [2]) [pM] | EC50 (human GPC3 on cells [3]) [pM] | internalization activity to HEPG2 cells, EC50 (pHAb dye fluorescence) (human GPC3 on cells [4]) [µg/mL] | internalization activity to HEPG2 cells, Top (pHAb dye fluorescence) (human GPC3 on cells [4]) | EC50 (human GPC3 on cells [5]) [pM] | EC50 (human GPC3 on cells [6]) [pM] | EC50 (human GPC3 on cells [7]) [pM] | internalization activity to HEPG2 cells, EC50 (pHAb dye fluorescence) (human GPC3 on cells [8]) [µg/mL] | EC50 (human GPC3 on cells [9]) [pM] | EC50 (human GPC3 on cells [10]) [pM] | Kd [11] [pM] | koff [11] [s⁻¹] | kon [11] [M⁻¹ s⁻¹] | EC50 (human GPC3 on cells [12]) [µg/mL] | EC50 (human GPC3 on cells [13]) [µg/mL]
1 | Y035 (Carsgen Therapeutics, US20190046659) (antibody, from another filing, V domains shown) VH: EVQLVQSGAEVKKPGASVKVSCKASGYTFSDYEMHWVRQAPGQGLEWMGAIHPGSGDTAYNQRFKGRVTITADKSTSTAYMELSSLRSEDTAVYYCARFYSYAYWGQGTLVTVSA VL: DIVMTQTPLSLPVTPGEPASISCRSSQSLVHSNGNTYLQWYLQKPGQSPQLLIYKVSNRFSGVPDRFSGSGSGTDFTLKISRVEAEDVGVYYCSQSIYVPYTFGQGTKLEIKR | 1180 | 1460 | 1420 | 1.08 | 52000 | 1250 | 1590 |  |  |  |  |  |  |  |  | 
2 | Y035 CDRs with Hu 52H5D3B8-7 FRs (antibody, V domains shown) VH: EVQLVQSGAEVKKPGASVKVSCKASGYTFTDYEMHWVRQAPGQGLEWMGAIHPGSGDTAYNQRFKGRVTMTADKSISTAYMELSRLRSDDTAVYYCTRFYSYAYWGQGTLVTVSS VL: DVVMTQTPLSLSVTPGQPASISCRSSQSLVHSNGNTYLQWYLQKPGQSPQLLIYKVSNRFSGVPDRFSGSGSGTDFTLKISRVEAEDVGVYYCSQSIYVPYTFGGGTKVEIK |  |  |  |  |  |  |  | 1050 | 1.11 | 667 | 985 |  |  |  |  | 
3 | Hu 52H5D3B8-7/8 CDRs with Y035 FRs (antibody, V domains shown) VH: EVQLVQSGAEVKKPGASVKVSCKASGYTHSDYEMHWVRQAPGQGLEWMGAIHPGSGGTAYNQKFKGRVTITADKSTSTAYMELSSLRSEDTAVYYCARFYSYAYWGQGTLVTVSA VL: DIVMTQTPLSLPVTPGEPASISCRSSQSLVHSNGNTYLQWYLQKPGQSPQLLIYKVSNRFSGVPDRFSGSGSGTDFTLKISRVEAEDVGVYYCSQSIHVPYTFGQGTKLEIKR |  |  |  |  |  |  |  | 1160 | 1.14 | 782 | 798 |  |  |  |  | 

Further binders by falling EC50 (human GPC3 on cells [7]), results first:

Row | EC50 (human GPC3 on cells [1]) [pM] | EC50 (human GPC3 on cells [2]) [pM] | EC50 (human GPC3 on cells [3]) [pM] | internalization activity to HEPG2 cells, EC50 (pHAb dye fluorescence) (human GPC3 on cells [4]) [µg/mL] | internalization activity to HEPG2 cells, Top (pHAb dye fluorescence) (human GPC3 on cells [4]) | EC50 (human GPC3 on cells [5]) [pM] | EC50 (human GPC3 on cells [6]) [pM] | EC50 (human GPC3 on cells [7]) [pM] | internalization activity to HEPG2 cells, EC50 (pHAb dye fluorescence) (human GPC3 on cells [8]) [µg/mL] | EC50 (human GPC3 on cells [9]) [pM] | EC50 (human GPC3 on cells [10]) [pM] | Kd [11] [pM] | koff [11] [s⁻¹] | kon [11] [M⁻¹ s⁻¹] | EC50 (human GPC3 on cells [12]) [µg/mL] | EC50 (human GPC3 on cells [13]) [µg/mL] | Binder
4 |  |  |  |  |  |  |  | 757 | 0.72 | 464 | 467 | 3230 | 0.00103 | 320000 | 0.0242 | 0.0447 | Hu 52H5D3B8-7 (antibody, V domains shown, humanized 52H5D3B8; also called 52H5D3B8 VH3 + VL0) VH: EVQLVQSGAEVKKPGASVKVSCKASGYTFTDYEMHWVRQAPGQGLEWMGAIHPGSGGTAYNQKFKGRVTMTADKSISTAYMELSRLRSDDTAVYYCTRFYSYAYWGQGTLVTVSS VL: DVVMTQTPLSLSVTPGQPASISCRSSQSLVHSNGNTYLQWYLQKPGQSPQLLIYKVSNRFSGVPDRFSGSGSGTDFTLKISRVEAEDVGVYYCSQSIHVPYTFGGGTKVEIK
5 |  |  |  |  |  |  |  | 693 | 0.78 | 418 | 434 | 3310 | 0.0011 | 332000 | 0.0233 | 0.0432 | Hu 52H5D3B8-8 (antibody, V domains shown, humanized 52H5D3B8; also called 52H5D3B8 VH3 + VL1) VH: EVQLVQSGAEVKKPGASVKVSCKASGYTFTDYEMHWVRQAPGQGLEWMGAIHPGSGGTAYNQKFKGRVTMTADKSISTAYMELSRLRSDDTAVYYCTRFYSYAYWGQGTLVTVSS VL: DVVMTQTPLSLSVTPGQPASISCRSSQSLVHSNGNTYLQWYLQKPGQSPQLLIYKVSNRFSGVPDRFSGSGSGTDFTLKISRVEAEDVGVYFCSQSIHVPYTFGGGTKVEIK
